Data from patent US20240034761A1, “REGENERATION OF MAMMALIAN TISSUES USING SYNTHETIC IMMODULINS” (priority 2022, published 2024).
Marks after values point to notes of the source that are not given here. Ends that are not written are not given here. Peptide text beside a SMILES is read from it. * marks the point of attachment. Biotin = O=C1N[C@H]2[C@H](CS[C@H]2CCCCC(=O)*)N1

Legend:
[1] = PIP-binding membrane assay (Membrane Lipid Strips); set-up: key: —: −−− no binding; +++ strong binding; conditions: 400 ng peptide
Experimental: N-terminally biotinylated versions of the peptides listed below were used in various assays listed in the examples. For the two types of phosphatidylinositon phosphate (PIP)-binding assays, imm1-imm6 peptides were used.
In the PIP-binding membrane assay, 400 ng of each peptide was bound to Membrane Lipid Strips (Catalog # P-6002, Echelon Biosciences, Salt Lake City, UT) and developed according to the manufacturer's instructions. Binding to PIPs was as follows (−−− no binding; +++ strong binding): […]

[2] = Plate assay: biotinylated peptide on streptavidin plates, FITC-labelled PIP2; type: binding; conditions: 400 ng peptide per well
Experimental: In the plate assay, biotinylated peptides imm3 and imm5 were bound to 96-well, streptavidin-coated plates (BioLegend corporaton, San Diego, CA) at 400 ng per well in PBS buffer at room temperature for 60 mins. Plates were washed in PBS and developed with FITC-labelled PIP2 (purchased from Cayman Chemical Co, Ann Arbor, MI). Fluorescence was counted in a laboratory fluorescence spectrophotometer. The results were as follows (EDTA background set to =100; **p<0.01 vs background control): […]

[3] = system: THP1-Dual monocyte reporter cell line; experiment: THP1-Dual myeloid cell differentiation assay (PMA protocol); type: cell-based, human; conditions: PMA 24 h, then peptide 0.33 uM or 0.66 uM 24 h; relative to immX3AVD = 100
Experimental: Mammalian cell differentiation assays employed the THP1-Dual monocyte reporter cell line (Invivogen Inc, San Diego, CA) seeded at 2×10e5 cells per well in 96-well plates and cultured at 37 degrees C. in RPMI-1640 growth medium plus 10% fetal bovine serum and 1% penicillin/streptomycin. Cells were subsequently treated for 24 hours with 100 ng/ml Phorbol 12-myristate 13-acetate (PMA protocol; Cayman Chemical Company, Ann Arbor, MI). Peptide (0.33 uM or 0.66 uM, as indicated) was then added, and incubation continued for an additional 24 hours. Culture supernatants were assayed for CCL22. Plates with adherent cells were washed with PBS and assayed for immunoreactivity of surface markers such as CD169, Clec9a or Clec12a using fuorescent tag- or biotin-labeled anti-human antibodies purchased from Miltenyi Biotec (Auburn, CA) and the secondary detection reagent recommended by the manufacturer.

[4] = Plate binding of FITC-labelled heparin to immobilised biotinylated peptides; conditions: 400 ng peptide/well, 1 ug FITC-heparin, PBS; normalized to immX3 peptide binding = 100
Experimental: (§1) Effects of pH, PIP2 and size classes: Streptavidin-coated 96-well plates (G-Biosciences, St. Louis, MO) were pre-loaded with biotinylated peptides [see Example 1] at 400 ng/well, at room temperature for 60 minutes. The plate was washed with PBS buffer and then 1 ug FITC-labelled heparin or hyaluronic acid (FITC-HMW-HA) in 100 uL PBS buffer was added per well (all tests done in quadruplicate). Incubation proceeded for 90 minutes at room temperature, followed by two PBS washes. The plate was read in a standard laboratory fluorometer (488/525 nm exitation/[…]) and the counts normalized for immX3 peptide binding=100. Values statistically above background are shown in bold font. **p<0.05 versus immX3AVD.

[5] = Plate binding of FITC-labelled hyaluronic acid to immobilised biotinylated peptides; conditions: 400 ng peptide/well, 1 ug FITC-HMW-HA, PBS; normalized to immX3 peptide binding = 100
Experimental: as §1

[6] = system: HFF-1 human fibroblast cell line; experiment: Collagen stimulating activity in HFF-1 dermal fibroblasts (Collagen-1 ELISA); type: cell-based; conditions: peptide 2 uM, 72 hour; control (buffer) set to 100
Experimental: Immodulin peptides have potential untility in the field of cosmetics. HFF-1 human fibroblast cell line was obtained from the American Type Culture Collection (ATCC). Cells were grown in a T-75 flask in DMEM Medium containing 10% fetal bovine serum and penicillin-streptomycin at 37° C. in a humidified, 5% CO2 incubator. Cells ([…], 2,000 cells/well) were plated in a 96-well plate and incubated overnight at 37° C. in a humidified, 5% CO2 incubator. Next day, […] of compounds were added (quadruplicate wells). After 72 hour incubation with the compound, supernatants were collected for Collagen-1 ELISA assay and cell viability was measured in a luminometer after the addition of […] CellTiterGlo reagent (Promega Inc, Madison, WI) as recommended by the manufacturer. Collagen stimulating activity of immodulin peptides in HFF-1 dermal fibroblasts: Peptides were added to cells at 2 uM. Collagen-1A1 (COL1) immunoreactivity was measured in the supernatants of cultured cells by ELISA using a rabbit monoclonal anti-COL1 primary antibody (Abcam, Cambridge, MA). Control (buffer) value of immunoreactivity was set to 100.

[7] = biological target: pure recombinant CD44 protein (Abcam); experiment: plate assay, pH 5.2, peptide pre-bound with 10 ug/well HMW-hyaluronan (CD44 capture through HA), anti-CD44 mAb/TMB detection
[8] = biological target: pure recombinant CD44 protein (Abcam); experiment: plate assay, pH 5.2, peptide pre-bound with 10 ug/well LMW-hyaluronan (CD44 capture through HA), anti-CD44 mAb/TMB detection
[9] = biological target: pure recombinant CD44 protein (Abcam); experiment: plate assay, pH 7.4, peptide pre-bound with 10 ug/well HMW-hyaluronan (CD44 capture through HA), anti-CD44 mAb/TMB detection
[10] = biological target: pure recombinant CD44 protein (Abcam); experiment: plate assay, pH 7.4, peptide pre-bound with 10 ug/well LMW-hyaluronan (CD44 capture through HA), anti-CD44 mAb/TMB detection
[11] = biological target: pure recombinant CD44 protein (Abcam); experiment: plate assay, biotin-peptide on streptavidin plate, pH 5.2, no hyaluronan (CONTROL), 100 ng/well CD44, anti-CD44 mAb/TMB detection
[12] = biological target: pure recombinant CD44 protein (Abcam); experiment: plate assay, biotin-peptide on streptavidin plate, pH 7.4, no hyaluronan (CONTROL), 100 ng/well CD44, anti-CD44 mAb/TMB detection
[13] = biological target: pure recombinant CD44 protein (Abcam); experiment: plate assay, pH 5.2, peptide pre-bound with 1.5 ug/well HMW-hyaluronan (CD44 capture through HA), anti-CD44 mAb/TMB detection; reference set to 100
[14] = biological target: pure recombinant CD44 protein (Abcam); experiment: plate assay, pH 7.4, peptide pre-bound with 1.5 ug/well HMW-hyaluronan (CD44 capture through HA), anti-CD44 mAb/TMB detection; reference set to 100
[15] = biological target: pure recombinant CD44 protein (Abcam); experiment: plate assay, pH 5.2, peptide + 10 ug/well holotransferrin, no hyaluronan (CONTROL), 100 ng/well CD44, anti-CD44 mAb/TMB detection
[16] = biological target: pure recombinant CD44 protein (Abcam); experiment: plate assay, pH 7.4, peptide + 10 ug/well holotransferrin, no hyaluronan (CONTROL), 100 ng/well CD44, anti-CD44 mAb/TMB detection
[17] = biological target: pure recombinant CD44 protein (Abcam); experiment: plate assay, pH 5.2, peptide + 10 ug/well holotransferrin + 10 ug/well HMW-hyaluronan (CD44 capture through HA), anti-CD44 mAb/TMB detection
[18] = biological target: pure recombinant CD44 protein (Abcam); experiment: plate assay, pH 5.2, peptide + 10 ug/well holotransferrin + 10 ug/well LMW-hyaluronan (CD44 capture through HA), anti-CD44 mAb/TMB detection
[19] = biological target: pure recombinant CD44 protein (Abcam); experiment: plate assay, pH 7.4, peptide + 10 ug/well holotransferrin + 10 ug/well HMW-hyaluronan (CD44 capture through HA), anti-CD44 mAb/TMB detection
[20] = biological target: pure recombinant CD44 protein (Abcam); experiment: plate assay, pH 7.4, peptide + 10 ug/well holotransferrin + 10 ug/well LMW-hyaluronan (CD44 capture through HA), anti-CD44 mAb/TMB detection
[21] = biological target: pure recombinant CD44 protein (Abcam); experiment: plate assay, pH 5.2, peptide + 10 ug/well holotransferrin + 1.5 ug/well HMW-hyaluronan (CD44 capture through HA), anti-CD44 mAb/TMB detection
[22] = biological target: pure recombinant CD44 protein (Abcam); experiment: plate assay, pH 7.4, peptide + 10 ug/well holotransferrin + 1.5 ug/well HMW-hyaluronan (CD44 capture through HA), anti-CD44 mAb/TMB detection

Sequence of pure recombinant CD44 protein (Abcam) (P16070 whole entry): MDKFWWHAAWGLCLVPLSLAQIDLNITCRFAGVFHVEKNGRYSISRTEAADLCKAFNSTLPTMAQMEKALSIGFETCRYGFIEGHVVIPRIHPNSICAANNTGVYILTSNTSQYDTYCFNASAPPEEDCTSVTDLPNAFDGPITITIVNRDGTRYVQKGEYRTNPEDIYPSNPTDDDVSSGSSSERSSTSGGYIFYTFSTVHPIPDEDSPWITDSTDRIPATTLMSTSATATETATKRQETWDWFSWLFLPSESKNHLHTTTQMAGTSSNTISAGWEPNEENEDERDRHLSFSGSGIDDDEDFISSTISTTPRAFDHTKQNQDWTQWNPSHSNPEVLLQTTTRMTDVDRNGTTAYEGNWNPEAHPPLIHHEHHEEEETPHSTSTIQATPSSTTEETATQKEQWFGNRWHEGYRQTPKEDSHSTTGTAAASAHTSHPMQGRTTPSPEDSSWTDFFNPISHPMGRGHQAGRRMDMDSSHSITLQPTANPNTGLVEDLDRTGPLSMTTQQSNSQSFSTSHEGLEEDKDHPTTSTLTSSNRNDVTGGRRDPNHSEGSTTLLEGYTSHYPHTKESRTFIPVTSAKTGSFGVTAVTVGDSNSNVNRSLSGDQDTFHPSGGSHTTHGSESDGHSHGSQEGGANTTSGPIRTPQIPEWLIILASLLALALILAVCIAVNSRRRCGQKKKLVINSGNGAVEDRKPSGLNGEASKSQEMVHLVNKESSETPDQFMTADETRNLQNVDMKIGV

## CC[C@H](C)[C@H](NC(=O)CNC(=O)[C@H](CCCNC(=N)N)NC(=O)[C@H](CCCCN)NC(=O)[C@H](CCCNC(=N)N)NC(=O)CNC(=O)[C@H](CCCNC(=N)N)NC(=O)[C@H](CO)NC(=O)[C@@H]1CCCN1C(=O)[C@H](CCCCN)NC(=O)[C@H](CS)NC(=O)[C@H](CCC(N)=O)NC(=O)[C@H](CCCCN)NC(=O)[C@H](CCCNC(=N)N)NC(=O)[C@H](CCCCN)NC(=O)[C@H](Cc1ccc(O)cc1)NC(=O)[C@H](Cc1ccccc1)NC(=O)CNC(=O)[C@H](CCCCN)NC(=O)[C@@H](N)CCCNC(=N)N)C(=O)N[C@@H](CS)C(=O)N[C@@H](Cc1c[nH]c2ccccc12)C(=O)O [imm5] (H-RKGFYKRKQCKPSRGRKRGICW-OH)
[1]
  Binding to Phosphatidylinositol: —
  Binding to PtdIns(4,5)P [PIP2]: +++
[2]; EDTA background
  FITC-PIP2 fluorescence, Background Control: 1.8 ± 0.5
[2]; with ferric iron
  FITC-PIP2 fluorescence, Ferric Iron: 23.4 ± 3.5**
[2]; with zinc
  FITC-PIP2 fluorescence, Zinc: 5.0 ± 1.2**
[3]
  CD169+ (AU): 36.5 ± 3.0 AU
[4]
  Heparin binding (fluorescence counts): 95.1 ± 25.7
[5]
  Hyaluronate binding (fluorescence counts): 60.0 ± 8.6**
[6]
  COL1 (Collagen-1A1 immunoreactivity in supernatant): 93

## Biotin-KKGFYKKKQCRPSKGRKRGFCWAVD (cysteine pairing not given here) [immX3AVD peptide (N-terminally biotinylated, bound to streptavidin-coated plate)]
[7]
  CD44 immunoreactivity (AU) (AU (immX3AVD + 1.5 ug HMW-HA = 100)): 105
[8]
  CD44 immunoreactivity (AU) (AU (immX3AVD + 1.5 ug HMW-HA = 100)): 103
[9]
  CD44 immunoreactivity (AU) (AU (immX3AVD + 1.5 ug HMW-HA = 100)): 101
[10]
  CD44 immunoreactivity (AU) (AU (immX3AVD + 1.5 ug HMW-HA = 100)): 103
[11]
  CD44 immunoreactivity (AU) (AU (immX3AVD + 1.5 ug HMW-HA = 100)): 13.2
[12]
  CD44 immunoreactivity (AU) (AU (immX3AVD + 1.5 ug HMW-HA = 100)): 19.6
[13]
  CD44 immunoreactivity (AU) (AU (immX3AVD + 1.5 ug HMW-HA = 100)): 100
[14]
  CD44 immunoreactivity (AU) (AU (immX3AVD + 1.5 ug HMW-HA = 100)): 100

B1: immX3AVD + holoTf (immX3AVD peptide incubated with 10 ug/well holotransferrin) (peptide, part only; not given: holotransferrin, not shown: large carriers)
peptide: Biotin-KKGFYKKKQCRPSKGRKRGFCWAVD
modifications: cysteine pairing not given here; also: non-covalent mixture/complex with holotransferrin, stoichiometry not given here
[15]
  CD44 immunoreactivity (AU) (AU (immX3AVD + 1.5 ug HMW-HA = 100)): 12
[16]
  CD44 immunoreactivity (AU) (AU (immX3AVD + 1.5 ug HMW-HA = 100)): 3.1
[17]
  CD44 immunoreactivity (AU) (AU (immX3AVD + 1.5 ug HMW-HA = 100)): 94.8
[18]
  CD44 immunoreactivity (AU) (AU (immX3AVD + 1.5 ug HMW-HA = 100)): 27.4
[19]
  CD44 immunoreactivity (AU) (AU (immX3AVD + 1.5 ug HMW-HA = 100)): 107
[20]
  CD44 immunoreactivity (AU) (AU (immX3AVD + 1.5 ug HMW-HA = 100)): 38.7
[21]
  CD44 immunoreactivity (AU) (AU (immX3AVD + 1.5 ug HMW-HA = 100)): 103
[22]
  CD44 immunoreactivity (AU) (AU (immX3AVD + 1.5 ug HMW-HA = 100)): 98.3
